Measurements: patent US8975044B2, “Polynucleotides encoding for frizzled-binding agents and uses thereof” (OncoMed Pharmaceuticals, Inc., priority 2008, dated 2015)

Key:
FZD1 = biological target: T1, FZD1 (Homo sapiens, UniProt Q9UP38); test: FACS binding to FZD-transfected HEK293 cells; conditions: FACS MFI dose-response, full-length FZD in HEK293, 20 μg/ml 4-fold dilutions
T1 construct: plasmid DNA expressing full-length FZD1, 2, 5, 7 or 8; expressed in transfected cells; host or cells: HEK293
Experimental: (§1) To measure antibody binding to FZD by flow cytometry HEK293 cells were co-transfected with FZD expression vectors and the transfection marker GFP. Twenty-four to forty-eight hours post-transfection, cells were collected in suspension and incubated on ice with anti-FZD antibodies (10 μg/ml unless otherwise indicated) or control IgG to detect background antibody binding. The cells were washed and primary antibodies detected with Fc domain-specific secondary antibodies conjugated to a fluorescent chromophore (e.g. phycoerythrin conjugated anti-human IgG). Labeled cells were then analyzed by flow cytometry to identify anti-FZD antibodies that specifically recognize cell surface expression of FZD protein. Monoclonal antibodies 18R5 and 18R8 recognized FZD on transfected cells. As shown in FIG. 1 and FIG. 2, both 18R8 and 18R5 bind to multiple FZD including FZD1, FZD2, FZD5, FZD7, and FZD8. […]
(§2) HEK293 cells were co-transfected with a plasmid DNA expressing full-length FZD1, 2, 5, 7 or 8 along with another plasmid expressing the reporter gene GFP used as a transfection marker. […] The cells were washed and bound anti-Fzd antibodies were detected with a secondary anti-human antibody conjugated to a fluorescent chromophore. Labeled cells were then detected and counted by FACS. The FACS data generated were expressed in Mean Fluorescence Intensity (MFI) units. […]

FZD2 = biological target: T2, FZD2 (Homo sapiens, UniProt Q14332); test: FACS binding to FZD-transfected HEK293 cells; conditions: FACS MFI dose-response, full-length FZD in HEK293, 20 μg/ml 4-fold dilutions
T2 construct: plasmid DNA expressing full-length FZD1, 2, 5, 7 or 8; expressed in transfected cells; host or cells: HEK293
Experimental: as §1, §2

FZD7 [1] = biological target: T3, FZD7 (Homo sapiens, UniProt O75084); test: Biacore affinity to recombinant Fzd Fc protein; assay type: binding; parameters: Fc (C); conditions: IgG antibody; Fzd Fc immobilized on CM5 Biacore chip
Experimental: The KDs of 18R8 and 18R5 antibodies were determined using the Biacore 2000 system from Biacore Lifescience (GE Healthcare). Specifically, purified anti-Fzd7 antibodies were serially diluted in 2-fold increments from 100 to 0.78 nM in HBS-P (0.01 M HEPES pH 7.4, 0.15 M NaCl, 0.005% v/v Surfactant P20). Each dilution was tested against recombinant Fzd Fc proteins immobilized onto a CM5 Biacore chip. The association and dissociation rates were measured and KD values determined using the Biaevaluation software program (Table 5, below).

FZD7 [2] = biological target: T3, FZD7; test: FACS binding to FZD-transfected HEK293 cells; parameters: plasmid DNA expressing full-length FZD1, 2, 5, 7 or 8; expressed in transfected cells; host or cells: HEK293; conditions: FACS MFI dose-response, full-length FZD in HEK293, 20 μg/ml 4-fold dilutions
Experimental: as §1, §2

OMP-Pn4 tumors = test: Limiting dilution assay of cancer stem cell frequency in treated OMP-Pn4 tumors; assay type: in vivo, NOD/SCID mice; conditions: tumors after 41 days treatment; 30-810 cells re-injected, 75 days; L-Calc
Experimental: Control and treated tumors from the OMP-Pn4 xenograft study described above (Example 7) were harvested at the end of 41 days treatment. The tumors were processed and dissociated into single cells. Tumor cells were then incubated with biotinylated mouse antibodies (α-mouse CD45-biotin 1:200 dilution and rat α-mouse H2 Kd-biotin 1:100 dilution, BioLegend, San Diego, Calif.) on ice for 30 min followed by addition of streptavidin-labeled magnetic beads (Invitrogen, Carlsbad, Calif.) to remove mouse cells. The remaining human cells in the suspension were collected, counted and diluted to appropriate cell doses (30, 90, 270 and 810 cells), mixed in the mixture of 1:1 (v/v) FACS buffer and Matrigel and injected subcutaneously in NOD/SCID mice (10 mice per cell dose per treatment group). Each dot in FIG. 40 represents the tumor volume of an individual mouse. The percentage of mice with detectable tumors was determined in all groups injected with anti-FZD antibody treated tumor cells and compared to the percentage of mice with detectable tumors in the controls. For example, the number of mice injected with 810 control-treated tumor cells that have detectable tumors was determined and compared to the number of mice injected with 810 FZD-antibody treated tumor cells that have detectable tumors. […]

OMP-C28 tumors = test: Flow cytometry of ESA and CD44 on cells of treated OMP-C28 tumors; assay type: in vivo, NOD/SCID mice; conditions: tumors harvested day 48; control antibody 64%
Experimental: Control and treated tumors from the OMP-C28 xenograft study described above (Example 7) were harvested at the end of the study (day 48). The tumors were processed and dissociated into single cells. Tumor cells were then incubated with biotinylated mouse antibodies (α-mouse CD45-biotin 1:200 dilution and rat α-mouse H2 Kd-biotin 1:100 dilution, BioLegend, San Diego, Calif.) on ice for 30 min followed by addition of streptavidin-labeled magnetic beads (Invitrogen, Carlsbad, Calif.) to remove mouse cells with the aid of a magnet.
For analysis of cell surface markers, the single tumor cell suspension was stained with anti-ESA (Biomeda) and anti-CD44 (BD Biosciences) antibodies which were directly conjugated to fluorochromes. Dead cells were excluded by using the viability dye DAPI. Flow cytometry was performed using a FACS Aria (Becton Dickinson). Side scatter and forward scatter profiles were used to eliminate cell clumps.

T2 sequence (Q14332 24-565): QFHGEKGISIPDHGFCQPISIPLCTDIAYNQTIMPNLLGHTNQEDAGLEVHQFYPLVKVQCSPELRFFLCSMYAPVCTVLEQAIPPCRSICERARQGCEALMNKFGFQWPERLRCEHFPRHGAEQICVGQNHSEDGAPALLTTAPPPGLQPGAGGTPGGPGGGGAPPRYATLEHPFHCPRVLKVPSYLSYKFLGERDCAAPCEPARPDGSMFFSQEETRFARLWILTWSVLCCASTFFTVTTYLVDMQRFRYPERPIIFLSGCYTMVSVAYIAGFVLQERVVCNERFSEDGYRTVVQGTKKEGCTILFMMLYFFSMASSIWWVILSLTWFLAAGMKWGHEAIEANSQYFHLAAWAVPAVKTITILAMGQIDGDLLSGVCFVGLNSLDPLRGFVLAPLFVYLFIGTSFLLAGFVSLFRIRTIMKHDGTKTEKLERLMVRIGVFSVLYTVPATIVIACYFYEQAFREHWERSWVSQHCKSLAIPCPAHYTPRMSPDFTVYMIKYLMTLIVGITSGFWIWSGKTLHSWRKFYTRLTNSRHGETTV
T1 sequence (Q9UP38 70-647): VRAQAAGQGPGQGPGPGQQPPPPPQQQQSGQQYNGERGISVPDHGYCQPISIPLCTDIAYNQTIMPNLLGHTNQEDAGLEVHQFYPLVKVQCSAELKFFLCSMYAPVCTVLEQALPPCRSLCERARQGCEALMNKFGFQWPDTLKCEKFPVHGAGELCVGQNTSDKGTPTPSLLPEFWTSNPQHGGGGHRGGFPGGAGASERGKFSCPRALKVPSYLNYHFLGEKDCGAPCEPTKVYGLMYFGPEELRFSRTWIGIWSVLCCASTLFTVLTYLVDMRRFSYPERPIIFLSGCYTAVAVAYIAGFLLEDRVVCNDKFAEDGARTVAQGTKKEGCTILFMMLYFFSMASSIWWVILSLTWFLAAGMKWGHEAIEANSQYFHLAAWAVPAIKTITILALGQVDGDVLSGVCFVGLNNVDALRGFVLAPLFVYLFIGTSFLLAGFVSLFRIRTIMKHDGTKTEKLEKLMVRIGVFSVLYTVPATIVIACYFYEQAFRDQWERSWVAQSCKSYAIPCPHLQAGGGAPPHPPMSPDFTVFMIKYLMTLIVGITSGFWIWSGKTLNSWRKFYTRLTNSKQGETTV

In the case of “18R5: human anti-FZD antibody; VH SEQ ID NO:10 (as 18R8), VL SEQ ID NO:14; binds FZD1, 2, 5, 7, 8”, the EC50 (FZD1) is reported as 0.41 nM, the EC50 (FZD2) is reported as 0.62 nM and the Kd (FZD7 [1]) is reported as 1.8 nM. It also gave an EC50 (FZD7 [2]) of 0.58 nM.

With `Nc1ccn([C@@H]2O[C@H](CO)[C@@H](O)C2(F)F)c(=O)n1` [gemcitabine, reference compound] the “cancer stem cell frequency” value (OMP-Pn4 tumors) was “had no effect”.

In the case of `CCc1c2c(nc3ccc(OC(=O)N4CCC(N5CCCCC5)CC4)cc13)-c1cc3c(c(=O)n1C2)COC(=O)[C@]3(O)CC` [irinotecan, reference compound], the “bulk tumor population expressing both ESA and CD44 at high levels (double positive)” value (OMP-C28 tumors) is reported as 55%.
